In this assay the target is Myc-tagged PTK7 (Xenopus protein tyrosine kinase 7, full length) (Xenopus). Description: co-IP; HEK293 cells co-transfected with Myc-tagged PTK7 and GFP-tagged constructs; immunoprecipitation with anti-Myc, Dynabeads Protein G, Western blot (Figure 5B). For orientation: Immunoblotting shows a protein as a band on a membrane.

As to “ΔkPTK7-GFP (Xenopus Ptk7 with the kinase domain deleted, GFP-tagged) (receptor)”, the quantity co-precipitated with full-length PTK7 in respect to input, densitometry, relative to PTK7 = 1 (relative to PTK7 = 1) came to 2.6.

The values above are taken from PMC8431534.
